The record followed here is US20080233131A1.

Assay [1] has as its target cynomolgus macaque CD4 on lymphocytes / PBMC (cynomolgus macaque (Macaca fascicularis)) (UniProt P79185). The assay can be described thus: flow cytometry of whole blood of TRX1-treated macaques; competitor SK3-RPE.
Assay [2] has the same target. The assay can be described thus: flow cytometry of whole blood of TRX1-immunised macaques; competitor 7E14-RPE.

UniProt P79185, sequence (P79185 26-458 limits assumed): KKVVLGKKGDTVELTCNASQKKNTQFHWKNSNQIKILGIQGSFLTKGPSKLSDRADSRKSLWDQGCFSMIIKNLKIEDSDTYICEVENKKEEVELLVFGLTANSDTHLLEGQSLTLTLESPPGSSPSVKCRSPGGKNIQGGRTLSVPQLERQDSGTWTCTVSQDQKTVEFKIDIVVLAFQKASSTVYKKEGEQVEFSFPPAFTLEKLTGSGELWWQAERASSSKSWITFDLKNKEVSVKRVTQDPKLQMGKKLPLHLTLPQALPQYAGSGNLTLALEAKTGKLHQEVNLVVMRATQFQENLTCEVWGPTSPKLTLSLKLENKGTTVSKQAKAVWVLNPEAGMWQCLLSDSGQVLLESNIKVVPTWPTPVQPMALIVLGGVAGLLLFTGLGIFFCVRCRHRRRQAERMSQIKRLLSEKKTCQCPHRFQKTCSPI

Regarding “humanized anti-human CD4 monoclonal antibody TRX1”, the reduction in the MFI of SK3 staining in assay [1] came to 50%. Moreover, the reduction in the MFI of 7E14 staining in assay [2] was 50%.
